Experimental data reported in patent US8357523B2, “Beta-glucosidase variant enzymes and related polynucleotides” (Codexis, Inc., priority 2009, dated 2013).

How the values were obtained:
[1] = High throughput cellobiose assay: fold improvement in cellobiase activity of CelA variants over a control enzyme (Tables 2A-2D, 3, 5, 6, 7); assay type: biochemical; conditions: assay of Example 7
[2] = Activity profile at different temperatures and pH using cellobiose (10 g/L) as substrate; assay type: biochemical

B1: Variant No. 264 (protein)
chain: SAAIAQEGAAPAAMLHPEKWPRPATQRLIDPAVEKRVDALLKQLSVEEKVGQVIQGDIGTITPEDLRKYPLGSILAGGDSGPNGDDRAPPKEWLDLADAFYRVSLEKRPGHTPIPVLFGIDAVHGHGNIGSATIFPHNIALGMTRDPELLRRIGEVTAEEMAATGIDWTFAPALSVVRDDRWGRTYEGFSEDPEIVASYSAAIVEGVQGKYGSKDFMAPGRAVACAKHFLADGGTDQGRDQGDARISEDELIRIHNAGYPPAIDAGVLTVMASFSSWQGIKHHGHKQLLTDVLKGQMGFNGFIVGDWNAHDQVPGCTKFNCPTSLIAGLDMYMAADSWKQLYENTLAQVKDGTIPMARLDDAVRRILRVKVLAGLFEKPAPKDRPGLPGLETLGSPEHRAVGREAVRKSLVLLKNDKGTLPLSPKARVLVAGDGADNIGKQSGGWTISWQGTGNRNDEFPGATSILGGIRDAVADAGGSVEFDVAGQYKTKPDVAIVVFGEEPYAEFRGDVETLEYQPDQKQDLTLLKKLKDQGIPVVAVFLSGRPMWVNPELNASDAFVAAWLPGTEGGGVADVLFTDKAGKVQHDFAGKLSYSWPRTAAQTTVNRGDADYNPLFAYGYGLTYKDKSKVGTLPEESGVPAEARQN
In the case of B1, the “activity (e.g., thermoactivity) over the wildtype A. irakense β-glucosidase” value [1] is reported as “improved activity”, the “pH of optimum activity” value [2] is reported as 6 pH and the “temperature of optimum activity” value [2] is reported as 58 °C.
